Measurements taken from the supplement of paper PMC9732359.
± gives the uncertainty stated by the source.

Test: protein stability index of a GFP-peptide fusion (yeast GPS) (PSI 1-4); higher = more stable; sorted into four equal gates, so the index is relative within each strain
Outline: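 Sequencing reads from sorted gates were used to score each peptide. The library consisted of tiled 17-residue yeast protein peptides fused downstream of GFP on a Cherry-expressing plasmid, pooled and carried in yeast. Mid-log cultures in leucine-free medium were split into four equal gates by GFP/Cherry ratio, and each gate's plasmids were PCR-amplified and Illumina-sequenced. The protein stability index adds up, over all gates, the read frequency multiplied by the gate number.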

Sequence | protein stability index (doa10∆) | protein stability index (pdr5∆) | protein stability index (san1∆) | protein stability index (ubr1∆)
PIPFEFQAVIQKSINHP [SNF2] | 2.67 ± 0.11 | 2.61 ± 0.081 | 2.37 ± 0.077 | 2.86 ± 0.057
HVLVGDLIKFSAETLSE [FAS1] | 2.38 ± 0.1 | 2.78 ± 0.1 | 2.67 ± 0.1 | 2.79 ± 0.089
FTNLGIIVQYLTKFRQK [RGR1] | 2.46 ± 0.053 | 2.64 ± 0.087 | 2.35 ± 0.066 | 2.28 ± 0.07
NGNDESSEYETINISLS [NUT1] | 3.16 ± 0.12 | 3.32 ± 0.2 | 3.06 ± 0.12 | 3.58 ± 0.25
TEGHKGHEELKRRIEEE [ISW2] | 3.33 ± 0.085 | 3.42 ± 0.09 | 3.11 ± 0.068 | 3.23 ± 0.065
PSTNKKLSISNAASQQP [GAL11] | 2.48 ± 0.084 | 2.8 ± 0.066 | 2.56 ± 0.072 | 2.74 ± 0.075
QKLLKQLDSDANKLSKS [ISW2] | 3.03 ± 0.048 | 2.89 ± 0.053 | 2.92 ± 0.047 | 2.98 ± 0.04
TSFDIKREGRNELQEER [POP6] | 3.46 ± 0.12 | 3.02 ± 0.15 | 3.73 ± 0.11 | 3.27 ± 0.07
PELNVSLNLTDDVISNA [MCD1] | 3.09 ± 0.04 | 3.21 ± 0.042 | 3.1 ± 0.036 | 3.15 ± 0.032
FHTSFSAVVGPNGSGKS [SMC4] | 3.09 ± 0.089 | 3.18 ± 0.084 | 3.35 ± 0.085 | 3.37 ± 0.12
AELDDCRGVSENVILGQ [RPO21] | 3.64 ± 0.14 | 3.68 ± 0.16 | 3.24 ± 0.07 | 3.56 ± 0.2
ITLHPSFFGPRMKQYLK [RPB7] | 2.41 ± 0.12 | 2.47 ± 0.12 | 1.75 ± 0.21 | 2.02 ± 0.061
LIETVRQMKDVNAPLPT [RPN2] | 3.12 ± 0.055 | 3.12 ± 0.051 | 2.9 ± 0.05 | 3.04 ± 0.036
MTLNRKCVVIHNGSHRT [ARP7] | 2.59 ± 0.051 | 2.74 ± 0.062 | 2.54 ± 0.059 | 2.66 ± 0.045
KDRFDIDEKSQFVETIV [RPN2] | 2.15 ± 0.05 | 2.48 ± 0.069 | 1.93 ± 0.066 | 2.17 ± 0.059
QLIAKNVANVSGSTEKA [SIR3] | 3.03 ± 0.085 | 3.04 ± 0.07 | 3.1 ± 0.054 | 2.88 ± 0.061
KAHPNFPIALQWTGGRG [FAS1] | 2.62 ± 0.13 | 2.64 ± 0.12 | 2.2 ± 0.096 | 2.01 ± 0.092
PNSERSGTPTLKKNIEP [YOR098C/NUP1] | 3.32 ± 0.14 | 3.26 ± 0.097 | 2.72 ± 0.24 | 3.07 ± 0.082
ATMSVFLQRIDFQIDGN [RRI2] | 2.92 ± 0.081 | 2.99 ± 0.066 | 2.95 ± 0.059 | 3.29 ± 0.058
TSLITAVYGPRSIRGSF [MTR3] | 2.72 ± 0.073 | 2.72 ± 0.086 | 2.55 ± 0.074 | 2.28 ± 0.058
HQNESSAASIPPQQTYH [RPN4] | 2.57 ± 0.054 | 2.89 ± 0.074 | 2.53 ± 0.066 | 2.69 ± 0.057
AKAGLTFPVGRVHRLLR [HTA1] | 2.03 ± 0.11 | 2.72 ± 0.14 | 2.01 ± 0.16 | 2.39 ± 0.12
TEVSRKSMKYVKKILPL [ECM29] | 2.34 ± 0.28 | 1.5 ± 0.24 | – | 1.18 ± 0.16
EGWPKFQDTLYKKIPLL [QCR10] | 2.8 ± 0.087 | 1.63 ± 0.079 | 1.85 ± 0.098 | 1.43 ± 0.069
KDWTDTFVYILEKLIFD [SRB8] | 2.39 ± 0.067 | 2.72 ± 0.058 | 2.73 ± 0.074 | 1.93 ± 0.052
EVLNRVASRHPSESEHP [YDL116W/NUP84] | 2.94 ± 0.15 | 3.17 ± 0.11 | 2.99 ± 0.084 | 3.24 ± 0.075

Sequence | protein stability index (doa10∆) | protein stability index (pdr5∆) | protein stability index (san1∆) | protein stability index (ubr1∆)
LGAIEQILIFAADTSIV [YJL039C/NUP192] | 1.47 ± 0.09 | 2.02 ± 0.049 | 1.72 ± 0.091 | 2.56 ± 0.099
RAGVSQVLNRYTYSSTL [RPB2] | 2.96 ± 0.044 | 2.9 ± 0.041 | 2.9 ± 0.038 | 2.76 ± 0.036
QDRLSDLIHKSEAFPSL [SMC4] | 3.31 ± 0.15 | 2.7 ± 0.11 | 3.07 ± 0.077 | 3.03 ± 0.088
PLFIVEDDESLGHKELK [RPB2] | 3.34 ± 0.15 | 3.34 ± 0.15 | 2.77 ± 0.14 | 1.8 ± 0.097
SNDKVVEWINPSRRERR [ISW2] | – | – | – | 3.34 ± 0.15
MQANKLDSQETPSTEES [SWI3] | 1.79 ± 0.096 | 2.35 ± 0.073 | 2.39 ± 0.11 | 2.36 ± 0.056
RALFETKLNLHCVIEDD [RRI1] | 2.36 ± 0.11 | 2.8 ± 0.071 | 2.8 ± 0.057 | 2.29 ± 0.1
YGNPTSKESWRYDWYQP [RTT102] | 2.05 ± 0.1 | 2.27 ± 0.082 | 2 ± 0.071 | 2.03 ± 0.035
TQQAVNLEKNYLAKLSK [IRR1] | 3.06 ± 0.27 | 3.34 ± 0.23 | – | 2.91 ± 0.14
TLTELKDALSNSILSVR [SRB2] | 3.29 ± 0.068 | 3.38 ± 0.082 | 3.21 ± 0.049 | 3.37 ± 0.09
KQVQISHHLKADTIDHD [YGL172W/NUP49] | 2.91 ± 0.067 | 3.09 ± 0.053 | 2.79 ± 0.065 | 2.92 ± 0.043
NVKELWTEKKGKNVINR [SMD2] | 3.46 ± 0.22 | – | 3.54 ± 0.18 | 3.6 ± 0.11
FDSELIHLKQKLSESLD [SMC3] | – | 2.88 ± 0.17 | 3.22 ± 0.13 | 3.24 ± 0.14
EKKPAAKKTSTSVDGKK [HTB2] | 2.38 ± 0.2 | 2.94 ± 0.15 | 2.72 ± 0.19 | 2.55 ± 0.2
NFEATKKSVLKQVQDFE [COR1] | 2.76 ± 0.13 | 2.39 ± 0.25 | 3.07 ± 0.15 | 2.91 ± 0.072
INGEDPANNHQLGLQTV [SMX2] | 2.93 ± 0.11 | 2.94 ± 0.1 | 2.9 ± 0.073 | 3.08 ± 0.06
VIYRNSLYKVSFLEKPK [YMR129W/POM152] | 2.49 ± 0.065 | 2.61 ± 0.081 | 2.42 ± 0.073 | 2.43 ± 0.12
PDDDKIVPLTEGDIQVL [RPT1] | 3.21 ± 0.097 | 3.22 ± 0.1 | 2.7 ± 0.07 | 3.01 ± 0.052
APSLTVPPIASPQQFLR [PRE2] | 1.56 ± 0.05 | 1.95 ± 0.058 | 1.67 ± 0.071 | 1.65 ± 0.045
RVVYLKHLEDNTLLVTG [RPL6B] | 1.89 ± 0.29 | 1.12 ± 0.095 | 1.15 ± 0.2 | 1.16 ± 0.2
QQDQPEQSEQPEQHQDK [RPN10] | 3.04 ± 0.059 | 3.14 ± 0.054 | 2.83 ± 0.048 | 3.13 ± 0.058
NLQTVHFGHCFNITDNG [GRR1] | 1.22 ± 0.091 | – | – | –
KDNECSSFEENNDLESV [RRI2] | 3.13 ± 0.16 | 3.12 ± 0.16 | 3.1 ± 0.17 | 3.34 ± 0.17
KPSFSFPGKPVDVQAPT [YOR098C/NUP1] | 2.72 ± 0.056 | 2.88 ± 0.094 | 3.12 ± 0.055 | 2.77 ± 0.068
KEQTIQLPSKFTCSCNS [RPN14] | 2.15 ± 0.065 | 2.53 ± 0.057 | 1.96 ± 0.063 | 2.16 ± 0.038
